Assay results from article PMC5113810.

Target: T1, DNA polymerase kappa core (hpol κ19-536) (Homo sapiens, UniProt Q9UBT6 19-536)
T1 sequence: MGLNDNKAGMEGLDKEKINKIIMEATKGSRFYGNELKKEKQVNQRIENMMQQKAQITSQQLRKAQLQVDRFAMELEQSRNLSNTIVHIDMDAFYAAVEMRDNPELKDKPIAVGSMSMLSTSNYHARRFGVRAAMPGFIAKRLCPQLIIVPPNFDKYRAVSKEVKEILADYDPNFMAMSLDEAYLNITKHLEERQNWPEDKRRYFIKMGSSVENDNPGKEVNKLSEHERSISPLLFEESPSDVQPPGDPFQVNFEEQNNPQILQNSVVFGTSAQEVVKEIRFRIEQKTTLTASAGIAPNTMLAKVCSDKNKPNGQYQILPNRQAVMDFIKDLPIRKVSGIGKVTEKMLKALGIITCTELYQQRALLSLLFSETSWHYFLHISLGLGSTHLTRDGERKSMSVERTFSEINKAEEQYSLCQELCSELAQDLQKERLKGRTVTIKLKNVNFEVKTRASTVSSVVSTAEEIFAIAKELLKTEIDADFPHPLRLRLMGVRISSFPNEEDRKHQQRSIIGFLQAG
Experiment: fluorescence polarization

B1: 11/28-mer G4 DNA (mixed)
DNA 1: ATCCTCCCCTA
DNA 2: TGGGTGGGTAGGGTGGGTAGGGGAGGAT
B1 showed a Kd of 15 nM.

B2: 11/28-mer non-G4 DNA (mixed)
DNA 1: ATCCTCCCCTA
DNA 2: TATGTGACTATGCTGGGTAGGGGAGGAT
Work on B2 yielded a Kd of 86 nM.
